How the values were obtained:
[1] = target: recombinant His-tagged full-length ERG (UniProt P11308); assay: Kd table of synthetic peptides on ERG; assay not given
[2] = target: recombinant His-tagged full-length ERG (UniProt P11308); assay: OctetRED; Kd table of synthetic peptides on ERG

recombinant His-tagged full-length ERG, sequence (P11308 whole entry): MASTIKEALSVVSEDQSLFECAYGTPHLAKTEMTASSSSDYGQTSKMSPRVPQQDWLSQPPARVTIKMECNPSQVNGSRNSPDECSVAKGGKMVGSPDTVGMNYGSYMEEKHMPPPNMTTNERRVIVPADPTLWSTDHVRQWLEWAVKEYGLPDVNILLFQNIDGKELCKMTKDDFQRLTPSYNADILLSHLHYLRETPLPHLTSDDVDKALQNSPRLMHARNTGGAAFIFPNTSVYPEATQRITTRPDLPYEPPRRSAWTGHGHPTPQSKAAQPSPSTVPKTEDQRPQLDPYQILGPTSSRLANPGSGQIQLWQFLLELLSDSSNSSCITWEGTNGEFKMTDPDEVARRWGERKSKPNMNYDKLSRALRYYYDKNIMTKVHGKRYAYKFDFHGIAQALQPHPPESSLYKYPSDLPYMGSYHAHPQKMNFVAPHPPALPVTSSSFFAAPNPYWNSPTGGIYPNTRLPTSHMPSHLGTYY

| Kd [1] | Kd [2] | Substance |
| --- | --- | --- |
| 7.5 µM | – | 3-mer PYL capped at both termini (Ac-PYL-NH2) (peptide) |
| 8.7 µM | – | 3-mer PYL capped at the N-terminus only (Ac-PYL) (peptide) |
| – | > 100 µM | 7-mer LPPYLFT capped at the C-terminus only (LPPYLFT-NH2) (peptide) |
| > 100 µM | > 100 µM | EIP1 capped at both termini (Ac-LPPYLFT-NH2) (peptide) |

Source: patent US20180273595A1
